Results from US12077763B2, “RNA-based control of powdery mildew” (Greenlight Biosciences, Inc., priority 2021, dated 2024).

Test system: E. necator
Assay: Leaf disc assay, dry inoculum (settling tower), decrease in disease severity / hyphal growth (Example 2)
Settings: decrease in disease severity (hyphal growth) relative to untreated control, value ± SE; for % decrease =/− SE TP1: time point 1 (untreated control hyphal growth ≥50%); for % decrease =/− SE TP2: time point 2

Row | Molecule | % decrease =/− SE TP1 [%] | % decrease =/− SE TP2 [%]
1 | GS3297 (nucleic acid) sense: GAGAAGAGGUCCGUGAGAAUUUUGACUCAUCUUUUGCCGCUCUUUAUCAUGAUCUUGAUAUGGGAUUUACACCGAUCAACUUUACAUUUUACUGGGCACCUCUACCUUGGAAUCGUGCUCGUGAUCAUGCCCAAAGAACUGUUGCUAGGACUUAUAUGAAUAUAAUCCAAGCUCGUACCCUCCUCUUCCCCUUCCCCUUCAUUGAACCUCGCUCCAAGGGGGCUUUAUGGGAAUCUGCCUCGUAGUAUAAAGUUCUGCAGCUGGCUCUACGGAUUGCAUCUACAACAACUACAACAUCAUCAUCAUCAUCAUCUUCAUCUUCAUCUUCUCCACCUUCAUAAGCUUCUACGUUUU antisense: AAAACGUAGAAGCUUAUGAAGGUGGAGAAGAUGAAGAUGAAGAUGAUGAUGAUGAUGAUGUUGUAGUUGUUGUAGAUGCAAUCCGUAGAGCCAGCUGCAGAACUUUAUACUACGAGGCAGAUUCCCAUAAAGCCCCCUUGGAGCGAGGUUCAAUGAAGGGGAAGGGGAAGAGGAGGGUACGAGCUUGGAUUAUAUUCAUAUAAGUCCUAGCAACAGUUCUUUGGGCAUGAUCACGAGCACGAUUCCAAGGUAGAGGUGCCCAGUAAAAUGUAAAGUUGAUCGGUGUAAAUCCCAUAUCAAGAUCAUGAUAAAGAGCGGCAAAAGAUGAGUCAAAAUUCUCACGGACCUCUUCUC | 12 ± 6 | 22 ± 7
2 | GS3298 (nucleic acid) sense: AUGCCUUACAAGGAGAAGAGGUCCGUGAGAAUUUUGACUCAUCUUUUGCCGCUCUUUAUCAUGAUCUUGAUAUGGGAUUUACACCGAUCAACUUUACAUUUUACUGGGCACCUCUACCUUGGAAUCGUGCUCGUGAUCAUGCCCAAAGAACUGUUGCUAGGACUUAUAUGAAUAUAAUCCAAGCUCGUAGAGAAGAGAAAACGUCAACAACCCCCCUCCUCUUCCCCUUCCCCUUCAUUGAACCUCGCUCCAAGGGGGCUUUAUGGGAAUCUGCCUCGUAGUAUAAAGUUCUGCAGCUGGCUCUACGGAUUGCAUCUACAACAACUACAACAUCAUCAUCAUCAUCAUCUUCAUCUUCAUCUUCUCCACCUUCAUAAGCUUCUACGUUUUUGCAUGUUCAA antisense: UUGAACAUGCAAAAACGUAGAAGCUUAUGAAGGUGGAGAAGAUGAAGAUGAAGAUGAUGAUGAUGAUGAUGUUGUAGUUGUUGUAGAUGCAAUCCGUAGAGCCAGCUGCAGAACUUUAUACUACGAGGCAGAUUCCCAUAAAGCCCCCUUGGAGCGAGGUUCAAUGAAGGGGAAGGGGAAGAGGAGGGGGGUUGUUGACGUUUUCUCUUCUCUACGAGCUUGGAUUAUAUUCAUAUAAGUCCUAGCAACAGUUCUUUGGGCAUGAUCACGAGCACGAUUCCAAGGUAGAGGUGCCCAGUAAAAUGUAAAGUUGAUCGGUGUAAAUCCCAUAUCAAGAUCAUGAUAAAGAGCGGCAAAAGAUGAGUCAAAAUUCUCACGGACCUCUUCUCCUUGUAAGGCAU | 22 ± 5 | 7 ± 7
3 | GS3299 (nucleic acid) sense: CACCAGGAUCCACCUAAAGAUGAGCCAACCGAUCAGAAGUCUCUGGAGCUGAGGAGAACCUUAUUUUAUAGUAUUUACUCUCUUGAUAGAUCUGUCAGUAUGGUUCACGCGCGCUCUUUUUCAUUUACCGACGAUUCGACUAGCGUUACUUUCCCAUCCAUUAAGAACGAGAAAUUACCAGUCGACACCAAAUUAAAACUAGGUAGGAAAUUCAAGAUUCAAUCCUCACUUUUAUUCAAACUUCGAAAGAUUCAGUCUUCAUGGUAUCACGAGCUUUUUCAAUCCAAAAAUGAUUUUAUAACAAAUCCAUCAACAUAUAUUCAGAAAGUGUGUCAAGAAAUGCAAGCAUGGGCUCAGUCGAUUCCCGAAUAUUUACCCACUCAUAUCAAAAAUUAUUU antisense: AAAUAAUUUUUGAUAUGAGUGGGUAAAUAUUCGGGAAUCGACUGAGCCCAUGCUUGCAUUUCUUGACACACUUUCUGAAUAUAUGUUGAUGGAUUUGUUAUAAAAUCAUUUUUGGAUUGAAAAAGCUCGUGAUACCAUGAAGACUGAAUCUUUCGAAGUUUGAAUAAAAGUGAGGAUUGAAUCUUGAAUUUCCUACCUAGUUUUAAUUUGGUGUCGACUGGUAAUUUCUCGUUCUUAAUGGAUGGGAAAGUAACGCUAGUCGAAUCGUCGGUAAAUGAAAAAGAGCGCGCGUGAACCAUACUGACAGAUCUAUCAAGAGAGUAAAUACUAUAAAAUAAGGUUCUCCUCAGCUCCAGAGACUUCUGAUCGGUUGGCUCAUCUUUAGGUGGAUCCUGGUG |  | 14 ± 7
4 | GS3300 (nucleic acid) sense: GUAUCAACCAUUGCCUCUCCAAACCUUUCACCAACAACUUCCUUUUCAUCUUUUGUACGAACAGAAACGCCUGAUUCCAGUCUGCCAUUUAUAGAAAAUCCAGUGGCUAGACAAAAUGCACAUUGUAGUAGUAAGAGUGUUGGCAAUGGAAAUGGAAUUUUUAACUUGGACAUGAAUCUUUUGGCUUCUGCUGCUAUUAGGGUGGAAGGGAAUCACUCAUCAAACGCUUGUCAUCUCCCCCGAUACAAUAAAUCAUGCUGCGACCUCAGUGCGUACAAGAGUCGUUCUCAUUUUGCCUCAUCAUCACUUGUUCAGUCUCAUCCACCUCCGACAUUAGACAAGCUCAAUCAUUGCAUUAAGAGGUAUAUGAAGCGUUCACGAACUGACU antisense: AGUCAGUUCGUGAACGCUUCAUAUACCUCUUAAUGCAAUGAUUGAGCUUGUCUAAUGUCGGAGGUGGAUGAGACUGAACAAGUGAUGAUGAGGCAAAAUGAGAACGACUCUUGUACGCACUGAGGUCGCAGCAUGAUUUAUUGUAUCGGGGGAGAUGACAAGCGUUUGAUGAGUGAUUCCCUUCCACCCUAAUAGCAGCAGAAGCCAAAAGAUUCAUGUCCAAGUUAAAAAUUCCAUUUCCAUUGCCAACACUCUUACUACUACAAUGUGCAUUUUGUCUAGCCACUGGAUUUUCUAUAAAUGGCAGACUGGAAUCAGGCGUUUCUGUUCGUACAAAAGAUGAAAAGGAAGUUGUUGGUGAAAGGUUUGGAGAGGCAAUGGUUGAUAC | 9 ± 5 | 4 ± 8
5 | GS3301 (nucleic acid) sense: CAACAGGGACCAGUUACCCUACACCUACUGGAGGUUACUCUGAAGAGCCCUACCACUAUAAAGGUGUCAAGCUAGGUCAUUGAGAGGAUUGAGUUACGAAAUUUGAUUGCAGCCACGCCUUCGACUUCAACCGAGAAGAGUUCCAAUCUCCCUCUUAGACGCAGGACUACUCUCACGAUACUUCUGUCUCUACUUCUUCUCAUGAGCACGCUAAUACUCUCUAAGCCUCCGUUGAUGUGUUGAAAGACAGGCACCUCAGUUUUGAUUCUAUUCAGCUCGGCAAACAUGUUGUGUACAUUCAUAGACUGAAUUUCUUUUUUAUUAUUU antisense: AAAUAAUAAAAAAGAAAUUCAGUCUAUGAAUGUACACAACAUGUUUGCCGAGCUGAAUAGAAUCAAAACUGAGGUGCCUGUCUUUCAACACAUCAACGGAGGCUUAGAGAGUAUUAGCGUGCUCAUGAGAAGAAGUAGAGACAGAAGUAUCGUGAGAGUAGUCCUGCGUCUAAGAGGGAGAUUGGAACUCUUCUCGGUUGAAGUCGAAGGCGUGGCUGCAAUCAAAUUUCGUAACUCAAUCCUCUCAAUGACCUAGCUUGACACCUUUAUAGUGGUAGGGCUCUUCAGAGUAACCUCCAGUAGGUGUAGGGUAACUGGUCCCUGUUG | 32 ± 5 | 0 ± 9
6 | GS3302 (nucleic acid) sense: UCUGAAGAGCCCUACCACUAUAAAGGUGUCAAGCUAGGUCAUUGAGAGGAUUGAGUUACGAAAUUUGAUUGCAGCCACGCCUUCGACUUCAACCGAGAAGAGUUCCAAUCUCCCUCUUAGACGCAGGACUACUCUCACGAUACUUCUGUCUCUACUUCUUCUCAUGAGCACGCUAAUACUCUCUAAGCCUCCGUUGAUGUGUUGAAAGACAGGCACCUCAGUUUUGAUUCUAUUCAGCUCGGCAAACAUG antisense: CAUGUUUGCCGAGCUGAAUAGAAUCAAAACUGAGGUGCCUGUCUUUCAACACAUCAACGGAGGCUUAGAGAGUAUUAGCGUGCUCAUGAGAAGAAGUAGAGACAGAAGUAUCGUGAGAGUAGUCCUGCGUCUAAGAGGGAGAUUGGAACUCUUCUCGGUUGAAGUCGAAGGCGUGGCUGCAAUCAAAUUUCGUAACUCAAUCCUCUCAAUGACCUAGCUUGACACCUUUAUAGUGGUAGGGCUCUUCAGA | 31 ± 5 | 22 ± 7
7 | GS3303 (nucleic acid) sense: UUACCCUACACCUACUGGAGGUUACUCUGAAGAGCCCUACCACUAUAAAGGUGUCAAGCUAGGUCAUUGAGAGGAUUGAGUUACGAAAUUUGAUUGCAGCCACGCCUUCGACUUCAACCGAGAAGAGUUCCAAUCUCCCUCUUAGACGCAGGACUACUCUCACGAUACUUCUGUCUCUACUUCUUCUCAUGAGCACGCUAAUACUCUCUAAGCCUCCGUUGAUGUGUUGAAAGACAGGCACCUCAGUUUUGAUUCUAUUCAGCUCGGCAAACAUGUUGUGUACAUUCAUAGACUGAAUUU antisense: AAAUUCAGUCUAUGAAUGUACACAACAUGUUUGCCGAGCUGAAUAGAAUCAAAACUGAGGUGCCUGUCUUUCAACACAUCAACGGAGGCUUAGAGAGUAUUAGCGUGCUCAUGAGAAGAAGUAGAGACAGAAGUAUCGUGAGAGUAGUCCUGCGUCUAAGAGGGAGAUUGGAACUCUUCUCGGUUGAAGUCGAAGGCGUGGCUGCAAUCAAAUUUCGUAACUCAAUCCUCUCAAUGACCUAGCUUGACACCUUUAUAGUGGUAGGGCUCUUCAGAGUAACCUCCAGUAGGUGUAGGGUAA | 35 ± 5 | 15 ± 9
8 | GS3304 (nucleic acid) sense: GUUACGCAUCGCCAACAGGGACCAGUUACCCUACACCUACUGGAGGUUACUCUGAAGAGCCCUACCACUAUAAAGGUGUCAAGCUAGGUCAUUGAGAGGAUUGAGUUACGAAAUUUGAUUGCAGCCACGCCUUCGACUUCAACCGAGAAGAGUUCCAAUCUCCCUCUUAGACGCAGGACUACUCUCACGAUACUUCUGUCUCUACUUCUUCUCAUGAGCACGCUAAUACUCUCUAAGCCUCCGUUGAUGUGUUGAAAGACAGGCACCUCAGUUUUGAUUCUAUUCAGCUCGGCAAACAUGUUGUGUACAUUCAUAGACUGAAUUUCUUUUUUAUUAUUUUUUUCCAAAUA antisense: UAUUUGGAAAAAAAUAAUAAAAAAGAAAUUCAGUCUAUGAAUGUACACAACAUGUUUGCCGAGCUGAAUAGAAUCAAAACUGAGGUGCCUGUCUUUCAACACAUCAACGGAGGCUUAGAGAGUAUUAGCGUGCUCAUGAGAAGAAGUAGAGACAGAAGUAUCGUGAGAGUAGUCCUGCGUCUAAGAGGGAGAUUGGAACUCUUCUCGGUUGAAGUCGAAGGCGUGGCUGCAAUCAAAUUUCGUAACUCAAUCCUCUCAAUGACCUAGCUUGACACCUUUAUAGUGGUAGGGCUCUUCAGAGUAACCUCCAGUAGGUGUAGGGUAACUGGUCCCUGUUGGCGAUGCGUAAC |  | 6 ± 7
